In US20240279601A1, “METHODS OF GENERATING SACRAL NEURAL CREST LINEAGES AND USES THEREOF” (MEMORIAL SLOAN-KETTERING CANCER CENTER, priority 2021, published 2024):
Ends that are not written are not given here.

Key:
[1] = tested on: hPSCs; assay: HOX and NC gene expression (qRT-PCR) during neural crest differentiation of hPSCs; format: cell-based, human; conditions: for expression of HOX regulatory genes (CDX1, CDX2, CDX4): combined treatment with CHIR99021 and FGF2; for expression of posterior genes HoxB7, HoxC9, HoxA10 and CDX4: different concentrations of FGF2 and CHIR99021 together
Description: NC differentiation. The basic NC differentiation protocols used are based on previous works (Fattahi et al., Nature 531, 105-109, 2016; Tchieu et al., Cell Stem Cell 21, 399-410 e397, 2017). Briefly, matrigel (Thermo Fisher, A1413201) was diluted at 1:100 ratio in DMEMF-12 (Thermo Fisher, 21331020) and plates were coated with the diluted matrigel overnight at 4° C. For inducing differentiation, hESCs or iPSCs were dissociated at 70%-80% confluence using EDTA dissociation buffer and replated as a single cell suspension on matrigel-coated 24-well plates at a density of 100K cells/cm^2 in E6 medium containing 10 μM ROCK-inhibitor (Y-27632; R&D, 1254). The cells were kept in E6 medium (Thermo Fisher, A1516401)+Y-27632 overnight. The next day, the medium was switched to NC induction medium. For cranial differentiation, the cells were kept in E6 medium containing 10 μM SB431542 (R&D, 1614), […] (R&D, 314-BP), and 0.6 μM CHIR (R&D, 4423) for the first 2 days and then switched to E6 medium containing 10 μM SB431542 and 1.5 μM CHIR for 10 days. For vagal NC the same conditions were used with an additional 1 μM RA (Sigma, R2625) added to the medium starting from D6. To establish the sacral NC protocol, the cranial NC protocol was modified with varying concentrations of FGF2 (R&D, 233-FB/CF), CHIR and GDF11 (Peprotech, 120-11), added at different time points as detailed in the results section. For the generation of melanocytes, 100 nM EDN3 (American Peptide company, 88-5-10B) was added to the sacral NC protocol from day 14 to day 20. In experiments testing the RA hypothesis, the sacral NC protocol was modified using either 1 μM RA (Sigma, R2625) or 100 nM AGN (Tocris, 5758) as detailed in the experimental design section.
RNA extraction and RT-qPCR. RNA was prepared from samples collected with the Zymo Direct-zol Kit and extracted using the Direct-zol RNA MiniPrep kit. cDNA was generated using the iScript Reverse Transcription Supermix for RT-qPCR. For qPCR analysis, primers were obtained from QIAGEN or IDT and the reactions were performed following manufacturers' instructions using SsoFast EvaGreen® Supermix. The Assays were run on BioRad CFX384 Real-Time PCR machine. Results were normalized to GAPDH housekeeping genes.

[2] = tested on: rodent GSK3β homologs; conditions: against rodent GSK3β homologs; cited from earlier work
[3] = tested on: sacral NC; assay: Migration (surface area) of NC cells in response to growth factors; format: cell-based, human
Description: (§1) Fluorescence image of cells and their migration at different time points: 0 hour (upper panel), 24 hours (middle panel), 48 hours (bottom panel). Scale bars, 50 pm. […] Scale bars, 500 pm. […] N=6 biological replicates. FIGS. 32D and 32E show surface area VNC or SNC cells in response to different growth factors. 1 equates to standard concentration (100 nM and 25 ng/ml for EDN3 and GDN F respectively), 0.1 equates to 1/10 of standard concentration and 10 equates to 10 times higher than the standard concentration. Surface area is quantified by ImageJ. N=4 biological replicates. […] The images are taken at different time points after transplantation: 1 Hour (left panel), 2 weeks (middle panel), 4 weeks (right panel). […] Data are present as Mean±SEM; ns: not significant P>0.05; *P≤0.05; **P≤0.01; ***P≤0.001; ****P≤0.0001
(§2) Migration and co-differentiation assays. Transwell assay: to test capacity of NC cells for invasion, we used the CytoSelect 24-Well Cell Invasion Assay, Basement (Cell Biolabs). We plated 200K cells per chamber in neural spheroids medium and added 500 μL of neural spheroid medium containing 10% fetal bovine serum to the lower well of the invasion plate and incubated the plate for 48 h at 37° C. in 5% CO2 atmosphere. Cells that crossed through the invasion chamber were stained with the Cell Stain Solution provided with the kit (Cell Biolabs) and examined under the microscope. The stained cells were then lysed and measured by plate reader for quantification. Migration assay: vagal or sacral neural spheroids were generated as described in enteric neuron differentiation section. Those spheroids were plated down on a 2D PO/LM/FN coated plated for assessing surface migration or embedded in […]) Matrigel for assessing migration within a Matrigel pellet. Pictures were taken at sequential time points post plating to trace the migration process. Scratch assay: vagal or sacral NC cells were plated on PO/LM/FN coated 24 well plates at density of 100×10^3 cells per cm^2. After 24 h, the culture lawn is scratched manually using a pipette tip. Live images are taken at different time points after the scratch was made to trace the migration.

[4] = tested on: vagal NC; assay: as above; format: cell-based, human; conditions: 0.1x, 1x, 10x of standard concentration (100 nM EDN3, 25 ng/ml GDNF)
Description: as §1, §2

[5] = tested on: hPSCs; assay: RNA-seq and ATAC-seq of NC differentiation with or without GDF11; format: cell-based, human
Description: RNA sequencing (RNA-seq). Cells were disassociated with Accutase for 20 minutes at 37° C. The cells were collected into 15 mL falcon tubes and DMEMF-12 containing 2% FBS was added to neutralize the enzyme. The cells were spun down and washed with PBS twice. The cells were spun down again in 1.5 mL Eppendorf tube and resuspended in 500 μL TRIzol (ThermoFisher catalog #15596018) and stored at −80° C. When all data points were collected, the samples underwent RNA extraction and RNA-seq as performed by the IGO core at MSKCC. Briefly, phase separation in cells lysed in 1 mL TRIzol Reagent was induced with 200 μL chloroform and RNA was extracted from the aqueous phase using the miRNeasy Mini Kit (Qiagen catalog #217004) on the QIAcube Connect (Qiagen) according to the manufacturer's protocol with 350 μL input. Samples were eluted in 15 μL RNase-free water. After RiboGreen quantification and quality control by Agilent BioAnalyzer, 500 ng of total RNA with RIN values of 9.6-10 underwent polyA selection and TruSeq library preparation according to instructions provided by Illumina (TruSeq Stranded mRNA LT Kit, catalog #RS-122-2102), with 8 cycles of PCR. Samples were barcoded and run on a HiSeq 4000 in a PE100 run, using the HiSeq 3000/4000 SBS Kit (Illumina). An average of 53 million paired reads was generated per sample and the percent of mRNA bases averaged 85%.
RNA-seq bioinformatics. STAR aligner (Dobin et al., Bioinformatics 29, 15-21, 2013) was used to map reads to the human genome (GRCh37). The 2-pass mapping method (Engström et al., Nature methods 10, 1185-1191, 2013) was used, in which the reads are mapped twice. SAM files were processed and converted to BAM format using PICARD tools and then HTseq was used to compute the expression count matrix from the mapped reads. DESeq2 (Love et al., Genome Biology 15, 550, 2014) was used to normalize the raw counts (Median of Ratios method) and perform differential gene expression analysis. Data are presented on a gene-by-gene basis as normalized counts or after carrying out a variance-stabilizing transformation followed by PCA analysis.
ATAC sequencing (ATAC-seq). Cells were disassociated with Accutase for 20 minutes at 37° C. The cells were collected into 15 mL falcon tubes and DMEMF-12 containing 2% FBS was added to neutralize the enzyme. The cells were spun down and washed with PBS twice. The cells were spun again in a 1.5 mL Eppendorf tube and resuspended in 500 μL stem cell banker cell freezing buffer and stored at liquid nitrogen tank. When all data points were collected, the samples were sent to IGO core. ATAC-seq was performed by IGO core at MSKCC. Profiling of chromatin was performed by ATAC-Seq as described in Buenrostro et al., Nat Methods 10, 1213-1218, 2013. Briefly, 50,000 viably frozen neural crest cells were washed in cold PBS and lysed. The transposition reaction was carried out using TDEI Tagment DNA Enzyme (Illumina catalog #20034198) incubated at 37° C. for 30 minutes. The DNA was cleaned with the MinElute PCR Purification Kit (QIAGEN catalog #28004) and material was amplified for 5 cycles using NEBNext High-Fidelity 2×PCR Master Mix (New England Biolabs catalog #M0541L). After evaluation by real-time PCR, 7-10 additional PCR cycles were done. The final product was cleaned by aMPure XP beads (Beckman Coulter catalog #A63882) at a 1× ratio, and size selection was performed at a 0.5× ratio. […] An average of 42 million paired reads were generated per sample. […]

[6] = low to medium level of EDN3, GDNF
[7] = early exposure to GDF11 in combination with FGF2 and CHIR
[8] = RNA seq, day 3, following GDF11 treatment

For `Cc1ccc(C2=CCC(C)(C)c3ccc(C#Cc4ccc(C(=O)O)cc4)cc32)cc1` [AGN, reference compound], the HOXC9 expression ([1]; RA 1 μM or AGN 100 nM added to NC protocol) was “increased”, the “sacral HOX gene expression” value ([1]; RA inhibition in GDF11 treated cultures) was “minimal impact” and the HOXC10 expression ([1]; RA inhibition in trunk NC (BMP condition)) was “promoted”.

For `Cc1c[nH]c(-c2cnc(NCCNc3ccc(C#N)cn3)nc2-c2ccc(Cl)cc2Cl)n1` [CHIR99021, 6-(2-(4-(2,4-dichlorophenyl)-5-(4-methyl-1H-imidazol-2-yl)pyrimidin-2-ylamino)ethylamino)nicotinonitrile, reference compound], the “expression of HOX regulatory genes (CDX1, CDX2, CDX4)” value [1] is given as “induced expression”, the “expression of posterior genes HoxB7, HoxC9, HoxA10 and CDX4” value [1] is given as “induced the expression” and the IC50 values [2] is given as “nanomolar”.

For “FGF2: activator of FGF signaling (R&D, 233-FB/CF)”, the “expression of HOX regulatory genes (CDX1, CDX2, CDX4)” value [1] was “induced expression” and the “expression of posterior genes HoxB7, HoxC9, HoxA10 and CDX4” value [1] was “induced the expression”.

In the case of “EDN3: growth factor EDN3 (American Peptide company, 88-5-10B) (CTCFTYKDKECVYYCHLDIIW; ends and bridges not checked; cysteine pairing not given here; UniProt P14138 97-117, looked up)”, the “sacral NC migration” value ([3]; high EDN3 concentration) is reported as “suppressed”, the “sacral NC migration” value [3, 6] is reported as “promoted” and the “vagal NC migration” value [4] is reported as “highly promoted”.

B1: GDNF: glial cell line derived neurotrophic factor (Peprotech, 450-10) (protein, UniProt P39905 78-211, looked up)
Glial cell line-derived …: SPDKQMAVLPRRERNRQAAAANPENSRGKGRRGQRGKNRGCVLTAIHLNVTDLGLGYETKEELIFRYCSGSCDAAETTYDKILKNLSRNRRLVSDKVGQACCRPIAFDDDLSFLDDNLVYHILRKHSAKRCGCI
With B1 the “sacral NC migration” value [3, 6] was “promoted” and the “vagal NC migration” value [4] was “barely affected”.

B2: GDF11: growth differentiation factor 11 or bone morphogenetic protein 11, a TGFβ family protein encoded by the GDF11 gene (protein, UniProt O95390 299-407, looked up)
Growth/differentiation factor …: NLGLDCDEHSSESRCCRYPLTVDFEAFGWDWIIAPKRYKANYCSGQCEYMFMQKYPHTHLVQQANPRGSAGPCCTPTKMSPINMLYFNDKQQIIYGKIPGMVVDRCGCS
In the case of B2, the “transition from TNCs to SNCs” value [1] is reported as “promoted the transition”, the “expression of posterior Hox genes by time of addition” value ([1]; GDF11 added from day 0 to day 3 versus later time points) is reported as “higher expression” and the “expression of stem cell-related factors SOX2 and MYC” value ([1]; GDF11 treated cultures) is reported as “increased expression”. For the same molecule, the “expression of the more anterior HOX genes (HOX4-9)” value [1, 7] was “without affecting”, the “sacral HOX gene expression (HOX10-13)” value [1, 7] was “dramatic and selective increase” and the “levels of H3K4 methyltransferases such as SMYD2” value [5, 8] was “decreased levels”. The “levels of H3K27Me3 demethylases JMJD6 and KDM6B” value [5, 8] was “increased levels”, the “gene expression of GRHL1, GRHL2 and GRHL3” value ([5]; following GDF11 exposure) was “significant decrease” and the “chromatin accessibility of GRHL factors” value ([5]; following GDF11 exposure, ATAC-seq) was “significant decrease”. For the same molecule, the “expression of RA signaling genes CRABP2, CYP26A1 and RBP4” value ([5]; following GDF11 treatment) was “reduced”.
